Measured values: paper PMC11187062 (2024)
Changes are numbered by the printed parent chain. Numbers in names are those of the source.

B1: hDPPA3_(81-118) L88A (domain or fragment)
chain: SRRGVRTALSVQREKMARLRYMLLGGVRTHERRPTNKE
B2: hDPPA3_(81-118) V85A (domain or fragment)
chain: B1 chain with V5A, A8L

Molecular target: T1, human UHRF1 PHD finger, residues 299–366 (human, UniProt Q96T88 299-366)
T1 chain: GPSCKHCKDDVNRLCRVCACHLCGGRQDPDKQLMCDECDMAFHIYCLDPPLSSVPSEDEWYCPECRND
Assay: ITC

Kd [µM]	Binder
1.28	B1
1.61	B2
